{
  "source": "patent US20080026992",
  "key": {"[1]": {"tested_on": "mutant p27 Y88F, phosphorylated on Tyr-89 by recombinant Abl kinase", "sequence (chain, as listed by the source Y88F)": "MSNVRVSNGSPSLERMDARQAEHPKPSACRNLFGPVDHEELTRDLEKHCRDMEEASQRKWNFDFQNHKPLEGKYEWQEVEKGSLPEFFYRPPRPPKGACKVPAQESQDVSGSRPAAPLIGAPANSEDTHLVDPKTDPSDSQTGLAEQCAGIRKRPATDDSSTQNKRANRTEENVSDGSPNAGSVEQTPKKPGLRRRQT"}, "[2]": {"tested_on": "p27Kip1, recombinant, tyrosine-phosphorylated in vitro by Abl kinase (Tyr-88 phosphorylated p27)"}, "[3]": {"tested_on": "p27Kip1, recombinant, unphosphorylated"}},
  "data": [
    {"substance": "CDK2/cyclin A complex, recombinant, purified from Sf9 insect cells", "values": [
      {"measurement": "phosphorylation of Thr-187 of p27 in CDK2 kinase complexes (Western blot with a phospho-threonine 187 specific antibody)", "setting": "[1]", "value": "a mutant phosphorylated on Tyr-89 is not a good substrate for CDK2-dependent phosphorylation (FIG. 5b)"},
      {"measurement": "phosphorylation of Thr-187 of p27 in CDK2 kinase complexes (Western blot with a phospho-threonine 187 specific antibody)", "setting": "[2]", "value": "Phosphorylation of Thr-187 was indeed strongly enhanced if Tyr-88 phosphorylated p27 was incubated in CDK2 kinase complexes (FIG. 5b)"},
      {"measurement": "phosphorylation of p27 by CDK2 within p27/CDK2/cyclin A complexes (32P incorporation)", "setting": "[2]", "value": "the tyrosine phosphorylated protein was a good substrate for CDK2 phosphorylation (FIG. 5a)"},
      {"measurement": "phosphorylation of p27 by CDK2 within p27/CDK2/cyclin A complexes (32P incorporation)", "setting": "[3]", "value": "As expected, p27 was poorly phosphorylated due to the absence of free kinase"}
    ]}
  ]
}
